In the supplement of paper PMC10567573 one finds protein stability index data, which are given here for 94 variants.

B1: PI4K2A (parent)
chain: FVKDPQGRIIAVFKPKNEEPYGHL
B2: ATL3 (parent)
chain: EKALASILLQDHIRDLDVVVVSVA
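Further: lentivirally expressed fusions sorted by FACS into six bins by GFP to DsRed ratio, PSI derived from sequencing read proportions per bin multiplied by bin number.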

The variants in the first data set derive from B1. Description: protein stability index of a GFP-peptide fusion (GPS, HEK-293T) (PSI 1-6); higher = more stable. As to conditions: c terminus: a fixed tail appended.
Consider FVKDPQGRIIAVFKPKNEEPYGHT [L24T], for which the protein stability index turned out to be 2.22.

Take FVKDPQGRIIAVFKPKNEEPYGHI [L24I]: the protein stability index stood at 1.92.

Regarding FVKDPQGRIIAVFKPKNEEPYGHH [L24H], the protein stability index is 1.76.

Turning to FVKDPQGRIIAVFKPKNEEPYGHN [L24N], the protein stability index was 1.63.

Turning to FVKDPQGRIIAVFKPKNEEPYGHP [L24P], the protein stability index is 2.33.

On to FVKDPQGRIIAVFKPKNEEPYGHF [L24F], for which the protein stability index worked out at 1.53.

For the variant FVKDPQGRIIAVFKPKNEEPYGHV [L24V], the protein stability index was 2.19.

Regarding FVKDPQGRIIAVFKPKNEEPYGHA [L24A], the protein stability index came to 2.27.

Consider FVKDPQGRIIAVFKPKNEEPYGHW [L24W], for which the protein stability index stood at 1.74.

FVKDPQGRIIAVFKPKNEEPYGHE [L24E]: the protein stability index came out at 1.04.

In the case of FVKDPQGRIIAVFKPKNEEPYGHM [L24M], the protein stability index worked out at 1.92.

As for FVKDPQGRIIAVFKPKNEEPYGHQ [L24Q], the protein stability index worked out at 2.03.

With FVKDPQGRIIAVFKPKNEEPYGHD [L24D], the protein stability index is 2.03.

On to FVKDPQGRIIAVFKPKNEEPYGHK [L24K], for which the protein stability index was 2.04.

On to FVKDPQGRIIAVFKPKNEEPYGHG [L24G], for which the protein stability index amounted to 1.48.

Take FVKDPQGRIIAVFKPKNEEPYGHC [L24C]: the protein stability index stood at 2.24.

For the variant FVKDPQGRIIAVFKPKNEEPYGHS [L24S], the protein stability index came to 2.1.

Take FVKDPQGRIIAVFKPKNEEPYGHY [L24Y]: the protein stability index came to 1.41.

With FVKDPQGRIIAVFKPKNEEPYGHR [L24R], the protein stability index amounted to 1.42.

Turning to FVKDPQGRIIAVFKPKNEEPYDHL [G22D], the protein stability index was found to be 1.74.

As for FVKDPQGRIIAVFKPKNEEPYFHL [G22F], the protein stability index was determined as 1.81.

With FVKDPQGRIIAVFKPKNEEPYVHL [G22V], the protein stability index stood at 1.55.

For the variant FVKDPQGRIIAVFKPKNEEPYSHL [G22S], the protein stability index stood at 2.65.

Turning to FVKDPQGRIIAVFKPKNEEPYTHL [G22T], the protein stability index stood at 1.41.

As for FVKDPQGRIIAVFKPKNEEPYHHL [G22H], the protein stability index came out at 1.88.

For the variant FVKDPQGRIIAVFKPKNEEPYMHL [G22M], the protein stability index worked out at 2.1.

For FVKDPQGRIIAVFKPKNEEPYQHL [G22Q], the protein stability index came to 2.09.

Consider FVKDPQGRIIAVFKPKNEEPYYHL [G22Y], for which the protein stability index came out at 1.48.

Consider FVKDPQGRIIAVFKPKNEEPYWHL [G22W], for which the protein stability index was found to be 1.72.

Turning to FVKDPQGRIIAVFKPKNEEPYCHL [G22C], the protein stability index is 1.93.

Consider FVKDPQGRIIAVFKPKNEEPYIHL [G22I], for which the protein stability index came to 1.74.

Regarding FVKDPQGRIIAVFKPKNEEPYPHL [G22P], the protein stability index came to 2.63.

Regarding FVKDPQGRIIAVFKPKNEEPYEHL [G22E], the protein stability index came to 2.02.

On to FVKDPQGRIIAVFKPKNEEPYAHL [G22A], for which the protein stability index turned out to be 1.66.

On to FVKDPQGRIIAVFKPKNEEPYRHL [G22R], for which the protein stability index came to 2.37.

Take FVKDPQGRIIAVFKPKNEEPYKHL [G22K]: the protein stability index worked out at 2.44.

With FVKDPQGRIIAVFKPKNEEPYNHL [G22N], the protein stability index is 1.73.

FVKDPQGRIIAVFKPKNEEPYLHL [G22L]: the protein stability index worked out at 2.03.

As for FVKDPQGRIIAVFKPKNEEPLGHL [Y21L], the protein stability index came to 2.85.

For FVKDPQGRIIAVFKPKNEEPHGHL [Y21H], the protein stability index was found to be 2.59.

FVKDPQGRIIAVFKPKNEEPEGHL [Y21E]: the protein stability index was 1.44.

For FVKDPQGRIIAVFKPKNEEPRGHL [Y21R], the protein stability index worked out at 2.11.

In the case of FVKDPQGRIIAVFKPKNEEPDGHL [Y21D], the protein stability index was 1.85.

Take FVKDPQGRIIAVFKPKNEEPIGHL [Y21I]: the protein stability index is 2.91.

FVKDPQGRIIAVFKPKNEEPCGHL [Y21C]: the protein stability index worked out at 2.

Consider FVKDPQGRIIAVFKPKNEEPTGHL [Y21T], for which the protein stability index was found to be 1.74.

As to FVKDPQGRIIAVFKPKNEEPSGHL [Y21S], the protein stability index turned out to be 1.72.

For the variant FVKDPQGRIIAVFKPKNEEPGGHL [Y21G], the protein stability index turned out to be 1.65.

For FVKDPQGRIIAVFKPKNEEPVGHL [Y21V], the protein stability index came out at 1.65.

For FVKDPQGRIIAVFKPKNEEPQGHL [Y21Q], the protein stability index worked out at 2.53.

For FVKDPQGRIIAVFKPKNEEPNGHL [Y21N], the protein stability index was found to be 1.5.

Turning to FVKDPQGRIIAVFKPKNEEPFGHL [Y21F], the protein stability index was 2.21.

Take FVKDPQGRIIAVFKPKNEEPAGHL [Y21A]: the protein stability index was 1.57.

FVKDPQGRIIAVFKPKNEEPMGHL [Y21M]: the protein stability index amounted to 1.54.

Consider FVKDPQGRIIAVFKPKNEEPWGHL [Y21W], for which the protein stability index amounted to 2.26.

With FVKDPQGRIIAVFKPKNEEPKGHL [Y21K], the protein stability index came out at 2.04.

Take FVKDPQGRIIAVFKPKNEEPPGHL [Y21P]: the protein stability index is 2.17.

For FVKDPQGRIIAVFKPKNEEPYGEL [H23E], the protein stability index is 1.62.

For FVKDPQGRIIAVFKPKNEEPYGPL [H23P], the protein stability index is 2.47.

Take FVKDPQGRIIAVFKPKNEEPYGQL [H23Q]: the protein stability index amounted to 1.56.

On to FVKDPQGRIIAVFKPKNEEPYGYL [H23Y], for which the protein stability index came to 1.78.

With FVKDPQGRIIAVFKPKNEEPYGGL [H23G], the protein stability index worked out at 2.6.

FVKDPQGRIIAVFKPKNEEPYGNL [H23N]: the protein stability index worked out at 1.99.

As to FVKDPQGRIIAVFKPKNEEPYGCL [H23C], the protein stability index turned out to be 1.94.

In the case of FVKDPQGRIIAVFKPKNEEPYGTL [H23T], the protein stability index worked out at 1.81.

Turning to FVKDPQGRIIAVFKPKNEEPYGRL [H23R], the protein stability index came to 1.79.

Take FVKDPQGRIIAVFKPKNEEPYGLL [H23L]: the protein stability index stood at 2.41.

As for FVKDPQGRIIAVFKPKNEEPYGML [H23M], the protein stability index stood at 1.87.

As for FVKDPQGRIIAVFKPKNEEPYGVL [H23V], the protein stability index stood at 2.28.

Take FVKDPQGRIIAVFKPKNEEPYGDL [H23D]: the protein stability index worked out at 2.39.

For FVKDPQGRIIAVFKPKNEEPYGWL [H23W], the protein stability index is 1.83.

For the variant FVKDPQGRIIAVFKPKNEEPYGKL [H23K], the protein stability index was determined as 1.61.

For the variant FVKDPQGRIIAVFKPKNEEPYGFL [H23F], the protein stability index came to 1.27.

Consider FVKDPQGRIIAVFKPKNEEPYGAL [H23A], for which the protein stability index came out at 1.65.

For FVKDPQGRIIAVFKPKNEEPYGSL [H23S], the protein stability index came to 1.36.

Regarding FVKDPQGRIIAVFKPKNEEPYGIL [H23I], the protein stability index amounted to 2.38.

In the case of FVKDPQGRIIAVFKPKNEESYGHL [P20S], the protein stability index came to 2.

As to FVKDPQGRIIAVFKPKNEEQYGHL [P20Q], the protein stability index was 1.7.

In the case of FVKDPQGRIIAVFKPKNEETYGHL [P20T], the protein stability index was 2.01.

As to FVKDPQGRIIAVFKPKNEEYYGHL [P20Y], the protein stability index was found to be 1.91.

For FVKDPQGRIIAVFKPKNEERYGHL [P20R], the protein stability index turned out to be 1.7.

For FVKDPQGRIIAVFKPKNEEWYGHL [P20W], the protein stability index was determined as 2.05.

On to FVKDPQGRIIAVFKPKNEENYGHL [P20N], for which the protein stability index turned out to be 1.94.

For FVKDPQGRIIAVFKPKNEEVYGHL [P20V], the protein stability index stood at 1.16.

Variants of B2 are the subject of another data set. Described as above. As to conditions: c terminus: a fixed tail appended.
As for EKALASILLQDHIRDLAVVVVSVA [D17A], the protein stability index was found to be 3.11.

Regarding EKALASILLQDHIRDLIVVVVSVA [D17I], the protein stability index is 1.36.

With EKALASILLQDHIRDLMVVVVSVA [D17M], the protein stability index turned out to be 2.05.

Consider EKALASILLQDHIRDLPVVVVSVA [D17P], for which the protein stability index came out at 2.93.

On to EKALASILLQDHIRDLYVVVVSVA [D17Y], for which the protein stability index came out at 3.45.

As to EKALASILLQDHIRDLQVVVVSVA [D17Q], the protein stability index turned out to be 1.93.

For the variant EKALASILLNDHIRDLDVVVVSVA [Q10N], the protein stability index was 2.98.

Consider EKALASILLSDHIRDLDVVVVSVA [Q10S], for which the protein stability index was 2.87.

For EKALASILLYDHIRDLDVVVVSVA [Q10Y], the protein stability index came to 3.47.

With EKALASILPQDHIRDLDVVVVSVA [L9P], the protein stability index was 1.61.
